# Laboratory results from the supplement of paper PMC10065799, “High-throughput profiling of sequence recognition by tyrosine kinases and SH2 domains using bacterial peptide display” (eLife, 2023).
# Molecular target: Hck (UniProt P08631)
# Test: phosphorylation enrichment, bacterial display (enrichment ratio); higher = better substrate or ligand; peptides without Tyr show the background
# 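Note: 11-residue human phosphosite peptides and single-mutation variants displayed on the E. coli surface, counted by deep sequencing, each peptide's frequency after selection divided by its frequency in the unselected input library; frequency after pTyr selection over input frequency; kinase dosed for 20-30% of maximal phosphorylation in three min.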
# Chain of Hck (P08631 whole entry, looked up): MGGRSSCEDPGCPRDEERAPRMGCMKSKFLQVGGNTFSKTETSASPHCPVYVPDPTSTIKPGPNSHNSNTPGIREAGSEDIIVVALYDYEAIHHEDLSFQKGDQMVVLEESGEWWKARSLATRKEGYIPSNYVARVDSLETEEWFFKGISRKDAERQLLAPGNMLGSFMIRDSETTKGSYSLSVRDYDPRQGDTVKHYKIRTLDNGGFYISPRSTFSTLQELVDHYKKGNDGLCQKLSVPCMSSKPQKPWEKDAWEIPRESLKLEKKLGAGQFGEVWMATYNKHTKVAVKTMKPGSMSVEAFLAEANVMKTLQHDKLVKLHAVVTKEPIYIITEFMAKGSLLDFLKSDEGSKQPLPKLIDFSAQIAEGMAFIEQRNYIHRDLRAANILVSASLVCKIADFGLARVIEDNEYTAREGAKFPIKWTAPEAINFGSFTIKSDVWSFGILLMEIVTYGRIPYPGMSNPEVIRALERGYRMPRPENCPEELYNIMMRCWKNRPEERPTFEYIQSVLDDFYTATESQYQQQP
row,Sequence,phosphorylation enrichment
1,HQPGEYLFHAE [FLT3_Y416_I417L],0.756
2,QGIIIYRAAFF [SLC25A4_Y187_YF],0.422
3,ERDFTYEELLN [EIF2S2_Y176_YF],0.855
4,LLNAIYLSAKW [SERPING1_Y294],2.18
5,KPLMPSMRFSR [SMARCE1_Y73_Y73S_YF],0.413
6,ACQSLYGGFVE [MVD_Y164_R161Q],8.54
7,REATAYLHGRL [AGXT_Y297_A295T],0.488
8,CTTIHYNYMCS [TP53_Y234_N239S],0.531
9,MSYDRYMAVCH [OR2A5_Y123_I126V],0.507
10,KILGTYFETGS [PAX2_Y72_R71T_YF],0.485
11,RRGFLYDSDEE [MCM2_Y137_L135F],0.764
12,FLAAIYPTVGQ [NF1_Y2508_T2507I_YF],0.477
13,FSKDNYKRVTG [PANK2_Y405_YF],0.396
14,YGLQAYTEVKT [ALDH2_Y502],0.488
15,QGGRHYMMIVD [GAA_Y438_R437H],0.779
16,ILDEAYVMAGV [ERBB2_Y772],0.532
17,HSDFQYGQRSQ [PKP2_Y168_S169G_YF],0.587
18,DIMDLYNQPEL [IL36A_Y96_P101L],1.29
19,VYSATYHPDHW [EFCAB12_Y544_P541S],5.4
20,AVEDQYYCVDC [FHL1_Y207],0.796
21,EEEFFYEKAIL [BCCIP_Y257],0.811
22,YSMGCYEISLE [HMGCL_Y198_G203E],1.23
23,DILASYLDKVR [KRT12_Y139_R135I],0.403
24,AVARMYGVLPW [PLP1_Y207_D203V],3.59
25,LVQAEYWRDPI [PPT1_Y185_H187R],0.423
26,FGSVDYWEKFF [EEF1AKNMT_Y16],0.55
27,AEVIWYKGDEE,0.414
28,EKNANYKEGTY [CLRN1_Y171_I168N],0.356
29,QLPATYMNLGP [MST1R_Y1360],0.741

# Molecular target: Jak2 (UniProt O60674)
# Sequence (O60674 whole entry, looked up): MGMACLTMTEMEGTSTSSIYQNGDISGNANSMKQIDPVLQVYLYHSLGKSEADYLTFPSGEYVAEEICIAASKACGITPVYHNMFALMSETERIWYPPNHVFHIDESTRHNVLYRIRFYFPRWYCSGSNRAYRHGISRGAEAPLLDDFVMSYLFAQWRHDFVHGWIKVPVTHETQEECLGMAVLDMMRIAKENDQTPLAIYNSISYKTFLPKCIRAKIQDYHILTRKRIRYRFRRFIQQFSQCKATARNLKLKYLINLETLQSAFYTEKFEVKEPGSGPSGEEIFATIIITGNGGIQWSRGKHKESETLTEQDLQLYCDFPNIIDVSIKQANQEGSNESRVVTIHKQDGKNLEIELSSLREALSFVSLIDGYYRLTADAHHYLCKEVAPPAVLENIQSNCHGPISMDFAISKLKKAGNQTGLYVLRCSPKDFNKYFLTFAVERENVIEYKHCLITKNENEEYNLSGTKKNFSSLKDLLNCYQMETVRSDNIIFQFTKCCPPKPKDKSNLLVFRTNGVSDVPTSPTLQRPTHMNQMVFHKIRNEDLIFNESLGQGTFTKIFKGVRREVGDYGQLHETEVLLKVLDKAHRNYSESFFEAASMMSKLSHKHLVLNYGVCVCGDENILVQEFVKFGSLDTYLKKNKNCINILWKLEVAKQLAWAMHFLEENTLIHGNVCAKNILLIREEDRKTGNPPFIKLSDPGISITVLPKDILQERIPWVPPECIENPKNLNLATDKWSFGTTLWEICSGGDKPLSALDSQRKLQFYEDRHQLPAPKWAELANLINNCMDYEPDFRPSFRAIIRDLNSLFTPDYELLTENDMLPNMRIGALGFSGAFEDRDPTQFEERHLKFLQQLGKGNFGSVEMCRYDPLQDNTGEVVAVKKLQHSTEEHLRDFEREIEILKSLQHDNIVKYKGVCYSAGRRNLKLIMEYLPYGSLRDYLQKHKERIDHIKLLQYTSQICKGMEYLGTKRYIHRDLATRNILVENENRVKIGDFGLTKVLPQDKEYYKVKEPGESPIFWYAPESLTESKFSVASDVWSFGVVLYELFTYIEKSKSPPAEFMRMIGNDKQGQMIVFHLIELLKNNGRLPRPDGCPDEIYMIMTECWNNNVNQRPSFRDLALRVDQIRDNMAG
# Test: as above
row,Sequence,phosphorylation enrichment
1,HQPGEYLFHAE [FLT3_Y416_I417L],1.29
2,QGIIIYRAAFF [SLC25A4_Y187_YF],1.17
3,ERDFTYEELLN [EIF2S2_Y176_YF],1.01
4,LLNAIYLSAKW [SERPING1_Y294],1.41
5,KPLMPSMRFSR [SMARCE1_Y73_Y73S_YF],0.685
6,ACQSLYGGFVE [MVD_Y164_R161Q],0.775
7,REATAYLHGRL [AGXT_Y297_A295T],0.871
8,CTTIHYNYMCS [TP53_Y234_N239S],0.636
9,MSYDRYMAVCH [OR2A5_Y123_I126V],0.891
10,KILGTYFETGS [PAX2_Y72_R71T_YF],0.717
11,RRGFLYDSDEE [MCM2_Y137_L135F],0.812
12,FLAAIYPTVGQ [NF1_Y2508_T2507I_YF],0.798
13,FSKDNYKRVTG [PANK2_Y405_YF],0.409
14,YGLQAYTEVKT [ALDH2_Y502],1.06
15,QGGRHYMMIVD [GAA_Y438_R437H],0.863
16,ILDEAYVMAGV [ERBB2_Y772],0.832
17,HSDFQYGQRSQ [PKP2_Y168_S169G_YF],0.727
18,DIMDLYNQPEL [IL36A_Y96_P101L],1.11
19,VYSATYHPDHW [EFCAB12_Y544_P541S],1.05
20,AVEDQYYCVDC [FHL1_Y207],1.39
21,EEEFFYEKAIL [BCCIP_Y257],1.34
22,YSMGCYEISLE [HMGCL_Y198_G203E],1.08
23,DILASYLDKVR [KRT12_Y139_R135I],0.505
24,AVARMYGVLPW [PLP1_Y207_D203V],0.666
25,LVQAEYWRDPI [PPT1_Y185_H187R],1.46
26,FGSVDYWEKFF [EEF1AKNMT_Y16],1.1
27,AEVIWYKGDEE,1.08
28,EKNANYKEGTY [CLRN1_Y171_I168N],0.575
29,QLPATYMNLGP [MST1R_Y1360],1.42

# Molecular target: MERTK (UniProt Q12866)
# Sequence (Q12866 whole entry, looked up): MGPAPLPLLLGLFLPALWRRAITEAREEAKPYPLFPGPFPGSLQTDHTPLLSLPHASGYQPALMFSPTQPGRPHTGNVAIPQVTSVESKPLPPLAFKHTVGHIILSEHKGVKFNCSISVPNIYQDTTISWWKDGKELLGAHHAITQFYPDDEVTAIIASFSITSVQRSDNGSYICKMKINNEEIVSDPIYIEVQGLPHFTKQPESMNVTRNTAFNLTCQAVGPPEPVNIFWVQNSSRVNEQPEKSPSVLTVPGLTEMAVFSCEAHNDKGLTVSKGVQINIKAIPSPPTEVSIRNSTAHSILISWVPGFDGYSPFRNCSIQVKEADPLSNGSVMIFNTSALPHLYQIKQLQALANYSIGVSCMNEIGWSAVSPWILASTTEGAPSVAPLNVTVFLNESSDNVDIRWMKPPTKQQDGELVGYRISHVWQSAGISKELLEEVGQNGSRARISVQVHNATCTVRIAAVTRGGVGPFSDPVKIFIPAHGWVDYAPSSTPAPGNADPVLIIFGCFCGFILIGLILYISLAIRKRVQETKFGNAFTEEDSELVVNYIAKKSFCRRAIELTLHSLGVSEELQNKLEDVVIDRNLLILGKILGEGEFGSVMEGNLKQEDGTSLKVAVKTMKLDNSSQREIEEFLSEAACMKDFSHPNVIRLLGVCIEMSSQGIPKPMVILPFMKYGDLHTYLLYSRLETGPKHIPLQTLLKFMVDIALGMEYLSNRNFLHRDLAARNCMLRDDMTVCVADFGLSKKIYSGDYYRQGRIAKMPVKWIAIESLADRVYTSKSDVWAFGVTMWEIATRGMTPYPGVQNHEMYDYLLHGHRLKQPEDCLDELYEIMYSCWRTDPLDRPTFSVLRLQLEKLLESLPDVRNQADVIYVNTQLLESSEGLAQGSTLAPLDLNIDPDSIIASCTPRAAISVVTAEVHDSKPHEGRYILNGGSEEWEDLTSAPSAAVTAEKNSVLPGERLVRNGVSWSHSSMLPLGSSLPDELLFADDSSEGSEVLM
# Test: as above
row,Sequence,phosphorylation enrichment
1,HQPGEYLFHAE [FLT3_Y416_I417L],0.617
2,QGIIIYRAAFF [SLC25A4_Y187_YF],0.61
3,ERDFTYEELLN [EIF2S2_Y176_YF],0.492
4,LLNAIYLSAKW [SERPING1_Y294],0.503
5,KPLMPSMRFSR [SMARCE1_Y73_Y73S_YF],0.459
6,ACQSLYGGFVE [MVD_Y164_R161Q],1.14
7,REATAYLHGRL [AGXT_Y297_A295T],0.374
8,CTTIHYNYMCS [TP53_Y234_N239S],0.545
9,MSYDRYMAVCH [OR2A5_Y123_I126V],0.44
10,KILGTYFETGS [PAX2_Y72_R71T_YF],0.5
11,RRGFLYDSDEE [MCM2_Y137_L135F],0.589
12,FLAAIYPTVGQ [NF1_Y2508_T2507I_YF],0.406
13,FSKDNYKRVTG [PANK2_Y405_YF],0.383
14,YGLQAYTEVKT [ALDH2_Y502],0.55
15,QGGRHYMMIVD [GAA_Y438_R437H],0.969
16,ILDEAYVMAGV [ERBB2_Y772],0.441
17,HSDFQYGQRSQ [PKP2_Y168_S169G_YF],0.511
18,DIMDLYNQPEL [IL36A_Y96_P101L],0.511
19,VYSATYHPDHW [EFCAB12_Y544_P541S],10.3
20,AVEDQYYCVDC [FHL1_Y207],0.72
21,EEEFFYEKAIL [BCCIP_Y257],0.847
22,YSMGCYEISLE [HMGCL_Y198_G203E],1.51
23,DILASYLDKVR [KRT12_Y139_R135I],0.364
24,AVARMYGVLPW [PLP1_Y207_D203V],0.491
25,LVQAEYWRDPI [PPT1_Y185_H187R],0.614
26,FGSVDYWEKFF [EEF1AKNMT_Y16],0.457
27,AEVIWYKGDEE,0.343
28,EKNANYKEGTY [CLRN1_Y171_I168N],0.372
29,QLPATYMNLGP [MST1R_Y1360],6.84

# Tested on: c-Abl (mouse)
# Test: as above
row,Sequence,phosphorylation enrichment
1,HQPGEYLFHAE [FLT3_Y416_I417L],1.21
2,QGIIIYRAAFF [SLC25A4_Y187_YF],1.04
3,ERDFTYEELLN [EIF2S2_Y176_YF],0.66
4,LLNAIYLSAKW [SERPING1_Y294],1.22
5,KPLMPSMRFSR [SMARCE1_Y73_Y73S_YF],0.737
6,ACQSLYGGFVE [MVD_Y164_R161Q],0.7
7,REATAYLHGRL [AGXT_Y297_A295T],0.63
8,CTTIHYNYMCS [TP53_Y234_N239S],0.715
9,MSYDRYMAVCH [OR2A5_Y123_I126V],0.509
10,KILGTYFETGS [PAX2_Y72_R71T_YF],0.668
11,RRGFLYDSDEE [MCM2_Y137_L135F],0.679
12,FLAAIYPTVGQ [NF1_Y2508_T2507I_YF],0.389
13,FSKDNYKRVTG [PANK2_Y405_YF],0.416
14,YGLQAYTEVKT [ALDH2_Y502],0.834
15,QGGRHYMMIVD [GAA_Y438_R437H],0.475
16,ILDEAYVMAGV [ERBB2_Y772],0.577
17,HSDFQYGQRSQ [PKP2_Y168_S169G_YF],0.509
18,DIMDLYNQPEL [IL36A_Y96_P101L],0.868
19,VYSATYHPDHW [EFCAB12_Y544_P541S],2.06
20,AVEDQYYCVDC [FHL1_Y207],0.786
21,EEEFFYEKAIL [BCCIP_Y257],1.1
22,YSMGCYEISLE [HMGCL_Y198_G203E],0.806
23,DILASYLDKVR [KRT12_Y139_R135I],0.37
24,AVARMYGVLPW [PLP1_Y207_D203V],0.656
25,LVQAEYWRDPI [PPT1_Y185_H187R],0.816
26,FGSVDYWEKFF [EEF1AKNMT_Y16],0.841
27,AEVIWYKGDEE,0.616
28,EKNANYKEGTY [CLRN1_Y171_I168N],0.451
29,QLPATYMNLGP [MST1R_Y1360],0.87
